The values below are quoted from earlier work in article PMC3332193.

In this data set the target is EGFR (Homo sapiens) (UniProt P00533).

The Kd is the constant that tells how readily two partners part at equilibrium. With EGF (from UniProt P01133), the Kd is less than 12 nM.
